Tested on: patients with osteoarthritis (OA) of the knee or hip
Experiment: Example 3: adjudicated joint safety outcomes (patient-level and joint-level) and total joint replacements, Safety Population
Type: in vivo, human
Settings: for rapidly progressive OA (types 1 and 2 combined): % of patients: any adjudicated RPOA
Text: Central radiology readers (Central Readers) may be board certified radiologists or have the international equivalent as musculoskeletal radiologists. The Central Readers may be governed by an imaging atlas and an imaging Charter which includes a specific description of the scope of their responsibilities. Central Readers may review the radiology images at Screening for assessment of eligibility (including determination of Kellgren-Lawrence Grade) and identification of exclusionary joint conditions such as rapidly progressive osteoarthritis, atrophic or hypotrophic osteoarthritis, subchondral insufficiency fractures (spontaneous osteonecrosis of the knee [SPONK]), primary osteonecrosis and pathological fractures. After start of treatment, the Central Reader may review radiology images for diagnosis of joint conditions that would warrant further evaluation by the Adjudication Committee such as possible or probable rapidly progressive osteoarthritis, subchondral insufficiency fractures (spontaneous osteonecrosis of the knee [SPONK]), primary osteonecrosis or pathological fracture.
For subjects who are identified with a possible or probable joint event (i.e., rapidly progressive osteoarthritis, subchondral insufficiency fractures, spontaneous osteonecrosis of the knee (SPONK), primary osteonecrosis or pathological fracture) and subjects undergoing total joint replacement for any reason, all images and other source documentation may be provided to the blinded Adjudication Committee for review and adjudication of the event. The Adjudication Committee's assessment of the event may represent the final classification of the event.
This study was designed with a total (post-randomization) duration of 80 weeks and consisted of three periods: Screening (up to a maximum of 37 days), Double-blind Treatment (56 weeks), and Safety Follow-up (24 weeks) (FIG. 1). The Screening Period included a Washout Period (lasting 2-30 days) if required, and an Initial Pain Assessment Period (7 days prior to Randomization/Baseline; minimum 3 days).

[1] = 2.5 mg SC, observation time-adjusted analysis
[2] = 2.5 mg SC, primary outcome per subject
[3] = 5 mg SC, observation time-adjusted analysis
[4] = 5 mg SC, primary outcome per subject
[5] = tanezumab 2.5 mg (N = 1002), joint-level
[6] = tanezumab 5 mg (N = 998), joint-level

tanezumab: humanized immunoglobulin G Type 2 (IgG2) monoclonal antibody directed against human nerve growth factor (NGF); SEQ ID NOs: 9 or 11 and 10
Observation time-adjusted incidence of patients with ≥1 reported TJR (2.5 mg SC): (51.8) /1000 patient-years | Pathological Fracture: observation time-adjusted rate (2.5 mg SC): (0) /1000 patient-years | Patients analyzed by the Adjudication Committee: n (2.5 mg SC): 115 | Primary Composite Joint Safety Endpoint: rate difference vs. NSAID (2.5 mg SC): 22.5 | Primary Osteonecrosis: observation time-adjusted rate (2.5 mg SC): (0) /1000 patient-years | Rapidly Progressive OA type 1: observation time-adjusted rate (2.5 mg SC): (28.4) /1000 patient-years | Rapidly Progressive OA type 1: rate difference vs. NSAID (2.5 mg SC): 17.6 | Rapidly Progressive OA type 2: rate difference vs. NSAID (2.5 mg SC): 1.9 | Rapidly Progressive OA: rate difference vs. NSAID (2.5 mg SC): 19.6 | Secondary Composite Joint Safety Endpoint: observation time-adjusted rate (2.5 mg SC): (8.8) /1000 patient-years | Secondary Composite Joint Safety Endpoint: rate difference vs. NSAID (2.5 mg SC): 3.8 | Subchondral Insufficiency Fracture: observation time-adjusted rate (2.5 mg SC): (5.8) /1000 patient-years | Subchondral Insufficiency Fracture: rate difference vs. NSAID (2.5 mg SC): 1.9 | TJR: rate difference vs. NSAID (2.5 mg SC): 27.2 | patients with ≥1 reported TJR: number (2.5 mg SC): 53 | rapidly progressive OA (types 1 and 2 combined): % of patients (2.5 mg SC): 3.2% | Pathological Fracture: n [1]: 0 | Primary Composite Joint Safety Endpoint: n [1]: 38 | Primary Osteonecrosis: n [1]: 0 | Rapidly Progressive OA type 1: n [1]: 29 | Rapidly Progressive OA: n [1]: 32 | Secondary Composite Joint Safety Endpoint: n [1]: 9 | Subchondral Insufficiency Fracture: n [1]: 6 | Normal Progression of OA: % [2]: (6.6%) | Normal Progression of OA: n [2]: 66 | Not enough information to determine Rapid vs. Normal Progression of OA: % [2]: (0.2%) | Not enough information to determine Rapid vs. Normal Progression of OA: n [2]: 2 | Other Joint Outcome: % [2]: (0.9%) | Other Joint Outcome: n [2]: 9 | Pathological Fracture: n [2]: 0 | Primary Composite Joint Safety Endpoint: % [2]: 3.8% and (3.8%) | Primary Composite Joint Safety Endpoint: n [2]: 38 | Primary Osteonecrosis: n [2]: 0 | Rapidly Progressive OA type 1: % [2]: (2.9%) | Rapidly Progressive OA type 1: n [2]: 29 | Rapidly Progressive OA type 2: % [2]: (0.3%) | Rapidly Progressive OA: % [2]: (3.2%) | Rapidly Progressive OA: n [2]: 32 | Secondary Composite Joint Safety Endpoint: % [2]: (0.9%) | Secondary Composite Joint Safety Endpoint: n [2]: 9 | Subchondral Insufficiency Fracture: % [2]: (0.6%) | Subchondral Insufficiency Fracture: n [2]: 6 | Observation time-adjusted incidence of patients with ≥1 reported TJR (5 mg SC): (78.7) /1000 patient-years | Pathological Fracture: observation time-adjusted rate (5 mg SC): (0) /1000 patient-years | Patients analyzed by the Adjudication Committee: n (5 mg SC): 171 | Primary Composite Joint Safety Endpoint: rate difference vs. NSAID (5 mg SC): 56.7 | Primary Osteonecrosis: observation time-adjusted rate (5 mg SC): (1.0) /1000 patient-years | Rapidly Progressive OA type 1: observation time-adjusted rate (5 mg SC): (49.1) /1000 patient-years | Rapidly Progressive OA type 1: rate difference vs. NSAID (5 mg SC): 38.2 | Rapidly Progressive OA type 2: rate difference vs. NSAID (5 mg SC): 12.9 | Rapidly Progressive OA: rate difference vs. NSAID (5 mg SC): 51.5 | Secondary Composite Joint Safety Endpoint: observation time-adjusted rate (5 mg SC): (21.8) /1000 patient-years | Secondary Composite Joint Safety Endpoint: rate difference vs. NSAID (5 mg SC): 16.9 | Subchondral Insufficiency Fracture: observation time-adjusted rate (5 mg SC): (6.9) /1000 patient-years | Subchondral Insufficiency Fracture: rate difference vs. NSAID (5 mg SC): 3.0 | TJR: rate difference vs. NSAID (5 mg SC): 54.0 | patients with ≥1 reported TJR: number (5 mg SC): 79 | rapidly progressive OA (types 1 and 2 combined): % of patients (5 mg SC): 6.3% | Pathological Fracture: n [3]: 0 | Primary Composite Joint Safety Endpoint: n [3]: 71 | Primary Osteonecrosis: n [3]: 1 | Rapidly Progressive OA type 1: n [3]: 49 | Rapidly Progressive OA type 2: n [3]: 14 | Rapidly Progressive OA: n [3]: 63 | Secondary Composite Joint Safety Endpoint: n [3]: 22 | Subchondral Insufficiency Fracture: n [3]: 7 | Normal Progression of OA: % [4]: (7.9%) | Normal Progression of OA: n [4]: 79 | Not enough information to determine Rapid vs. Normal Progression of OA: n [4]: 0 | Other Joint Outcome: % [4]: (2.1%) | Other Joint Outcome: n [4]: 21 | Pathological Fracture: n [4]: 0 | Primary Composite Joint Safety Endpoint: % [4]: 7.1% and (7.1%) | Primary Composite Joint Safety Endpoint: n [4]: 71 | Primary Osteonecrosis: % [4]: (0.1%) | Primary Osteonecrosis: n [4]: 1 | Rapidly Progressive OA type 1: % [4]: (4.9%) | Rapidly Progressive OA type 1: n [4]: 49 | Rapidly Progressive OA type 2: % [4]: 1.4% and (1.4%) | Rapidly Progressive OA type 2: n [4]: 14 | Rapidly Progressive OA: % [4]: (6.3%) | Rapidly Progressive OA: n [4]: 63 | Secondary Composite Joint Safety Endpoint: % [4]: (2.2%) | Secondary Composite Joint Safety Endpoint: n [4]: 22 | Subchondral Insufficiency Fracture: % [4]: (0.7%) | Subchondral Insufficiency Fracture: n [4]: 7 | Rapidly Progressive OA type 1: Associated with TJR No, % [5]: (90.0%) | Rapidly Progressive OA type 1: Associated with TJR Yes, % [5]: (10.0%) | Rapidly Progressive OA type 1: Baseline Kellgren-Lawrence Grade of Affected Joint 0, % [5]: (3.3%) | Rapidly Progressive OA type 1: Baseline Kellgren-Lawrence Grade of Affected Joint 1, % [5]: (20.0%) | Rapidly Progressive OA type 1: Baseline Kellgren-Lawrence Grade of Affected Joint 2, % [5]: (36.7%) | Rapidly Progressive OA type 1: Baseline Kellgren-Lawrence Grade of Affected Joint 3, % [5]: (40.0%) | Rapidly Progressive OA type 1: Joint affected Hip, % [5]: (13.3%) | Rapidly Progressive OA type 1: Joint affected Knee, % [5]: (86.7%) | Rapidly Progressive OA type 2: Associated with TJR No, % [5]: (66.7%) | Rapidly Progressive OA type 2: Associated with TJR Yes, % [5]: (33.3%) | Rapidly Progressive OA type 2: Baseline Kellgren-Lawrence Grade of Affected Joint 3, % [5]: (33.3%) | Rapidly Progressive OA type 2: Baseline Kellgren-Lawrence Grade of Affected Joint 4, % [5]: (66.7%) | Rapidly Progressive OA type 2: Joint affected Hip, % [5]: (33.3%) | Rapidly Progressive OA type 2: Joint affected Knee, % [5]: (66.7%) | Subchondral Insufficiency Fracture: Associated with TJR No, % [5]: (100.0%) | Subchondral Insufficiency Fracture: Baseline Kellgren-Lawrence Grade of Affected Joint 2, % [5]: (33.3%) | Subchondral Insufficiency Fracture: Baseline Kellgren-Lawrence Grade of Affected Joint 3, % [5]: (66.7%) | Subchondral Insufficiency Fracture: Joint affected Hip, % [5]: (33.3%) | Subchondral Insufficiency Fracture: Joint affected Knee, % [5]: (66.7%) | Rapidly Progressive OA type 1: Associated with TJR No, % [6]: (84.9%) | Rapidly Progressive OA type 1: Associated with TJR Yes, % [6]: (15.1%) | Rapidly Progressive OA type 1: Baseline Kellgren-Lawrence Grade of Affected Joint 0, % [6]: (3.8%) | Rapidly Progressive OA type 1: Baseline Kellgren-Lawrence Grade of Affected Joint 1, % [6]: (20.8%) | Rapidly Progressive OA type 1: Baseline Kellgren-Lawrence Grade of Affected Joint 2, % [6]: (43.4%) | Rapidly Progressive OA type 1: Baseline Kellgren-Lawrence Grade of Affected Joint 3, % [6]: (30.2%) | Rapidly Progressive OA type 1: Baseline Kellgren-Lawrence Grade of Affected Joint Not Available, % [6]: (1.9%) | Rapidly Progressive OA type 1: Joint affected Hip, % [6]: (15.1%) | Rapidly Progressive OA type 1: Joint affected Knee, % [6]: (83.0%) | Rapidly Progressive OA type 1: Joint affected Shoulder, % [6]: (1.9%) | Rapidly Progressive OA type 2: Associated with TJR No, % [6]: (43.8%) | Rapidly Progressive OA type 2: Associated with TJR Yes, % [6]: (56.3%) | Rapidly Progressive OA type 2: Baseline Kellgren-Lawrence Grade of Affected Joint 0, % [6]: (12.5%) | Rapidly Progressive OA type 2: Baseline Kellgren-Lawrence Grade of Affected Joint 1, % [6]: (6.3%) | Rapidly Progressive OA type 2: Baseline Kellgren-Lawrence Grade of Affected Joint 2, % [6]: (6.3%) | Rapidly Progressive OA type 2: Baseline Kellgren-Lawrence Grade of Affected Joint 3, % [6]: (31.3%) | Rapidly Progressive OA type 2: Baseline Kellgren-Lawrence Grade of Affected Joint 4, % [6]: (37.5%) | Rapidly Progressive OA type 2: Baseline Kellgren-Lawrence Grade of Affected Joint Not Available, % [6]: (6.3%) | Rapidly Progressive OA type 2: Joint affected Hip, % [6]: (43.8%) | Rapidly Progressive OA type 2: Joint affected Knee, % [6]: (50.0%) | Rapidly Progressive OA type 2: Joint affected Shoulder, % [6]: (6.3%) | Subchondral Insufficiency Fracture: Associated with TJR No, % [6]: (57.1%) | Subchondral Insufficiency Fracture: Associated with TJR Yes, % [6]: (42.9%) | Subchondral Insufficiency Fracture: Baseline Kellgren-Lawrence Grade of Affected Joint 0, % [6]: (14.3%) | Subchondral Insufficiency Fracture: Baseline Kellgren-Lawrence Grade of Affected Joint 1, % [6]: (14.3%) | Subchondral Insufficiency Fracture: Baseline Kellgren-Lawrence Grade of Affected Joint 2, % [6]: (57.1%) | Subchondral Insufficiency Fracture: Baseline Kellgren-Lawrence Grade of Affected Joint 3, % [6]: (14.3%) | Subchondral Insufficiency Fracture: Joint affected Hip, % [6]: (14.3%) | Subchondral Insufficiency Fracture: Joint affected Knee, % [6]: (85.7%)

From patent US20220089710A1, “Method of Treating Signs and Symptoms of Osteoarthritis” (Pfizer Inc., priority 2019, published 2022)
